The values that follow come from patent publication CN117603356A (HAIBO HUAJIAN HUZHOU PHARMACEUTICAL TECH CO LTD, dated 2024).

The labels stand for the following.
B1: PI-19-hFc (Fc fusion)
chain: EVQLVESGGGSVQAGGSLRLSCAASGITISNNCMGWFRQAPGKEREGVALLYSTSSTSSQKSHADSVKGRFTISRDNAKNTVYLQMNSLKPEDSAMYYCAAKSGVCRWNWEYGMDYWDWGKGTLVTISS
notes: VHH inserted into the pFCIG-hIgG1 plasmid, expressed in HEK293F; also called 单克隆PI-19-hFc; not shown: human IgG1 Fc fragment (hFC) from the bought expression plasmid pFCIG-hIgG1
B2: PI-21-hFc (Fc fusion)
chain: QVKLVQSGGGLVQPGGSLRLSCAASGFTFENYAMGWLRQAPGEGLEWVSSINYNGDVTAYTTSVKGRFTVSRDNAKNTLYLQLNDLKIDDTAMYYCAKGRYGWALSREDYNTRGQGTQVTVSS
notes: VHH inserted into the pFCIG-hIgG1 plasmid, expressed in HEK293F; also called 单克隆PI-21-hFc; not shown: human IgG1 Fc fragment (hFC) from the bought expression plasmid pFCIG-hIgG1
B3: PI-74-hFc (Fc fusion)
chain: EVKLVESGGGSVQAGGSLRLSCTASGPTYGRTCMGWFRQAPGREREGVATIETKGLTRYTYYADSVKGRFTISQDDAKNTLYLQMNSLKPEDTAMYYCAADGPGCSGGAFIARGRWYPHWGQGTQVTVSS
notes: VHH inserted into the pFCIG-hIgG1 plasmid, expressed in HEK293F; also called 单克隆PI-74-hFc; not shown: human IgG1 Fc fragment (hFC) from the bought expression plasmid pFCIG-hIgG1
B4: PI-28-hFc (Fc fusion)
chain: EVKLVESGGGSVQAGGSLRLSCAASGYTYSSACMGWFRQAPGKERDWVALIDGIGSTTYTDSVKGRFTISQDNAKNTLYLQMNSLKPEDTATYYCAADLLSGGYCHPVGGGARDWGGPVVADFTYWGQGTQVTVSS
notes: VHH inserted into the pFCIG-hIgG1 plasmid, expressed in HEK293F; also called 单克隆PI-28-hFc; not shown: human IgG1 Fc fragment (hFC) from the bought expression plasmid pFCIG-hIgG1

In the assay the target is T1, Human-pIgR-ECD-his抗原重组蛋白 (human, UniProt P01833 19-638).
T1 construct: extracellular domain; Recombinant antigen coated on the ELISA plate (200 ng/well); also called PI蛋白; not shown: his tag
T1 sequence (P01833 19-638): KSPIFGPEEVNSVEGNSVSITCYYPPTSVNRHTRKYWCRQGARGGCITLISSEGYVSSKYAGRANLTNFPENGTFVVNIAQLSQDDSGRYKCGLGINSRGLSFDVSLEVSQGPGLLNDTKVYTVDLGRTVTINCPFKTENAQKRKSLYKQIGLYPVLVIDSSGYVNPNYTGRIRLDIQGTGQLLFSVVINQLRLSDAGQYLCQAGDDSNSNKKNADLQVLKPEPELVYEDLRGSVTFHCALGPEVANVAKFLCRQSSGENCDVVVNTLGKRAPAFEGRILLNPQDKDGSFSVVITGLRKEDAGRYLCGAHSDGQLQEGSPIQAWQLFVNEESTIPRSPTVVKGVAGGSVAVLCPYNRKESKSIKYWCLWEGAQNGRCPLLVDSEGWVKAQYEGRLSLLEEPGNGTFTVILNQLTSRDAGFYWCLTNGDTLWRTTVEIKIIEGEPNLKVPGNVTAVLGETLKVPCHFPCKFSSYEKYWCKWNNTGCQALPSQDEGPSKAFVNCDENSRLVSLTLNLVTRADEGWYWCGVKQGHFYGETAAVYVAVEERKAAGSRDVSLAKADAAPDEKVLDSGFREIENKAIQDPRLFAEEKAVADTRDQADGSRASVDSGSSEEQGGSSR
As to the kind of experiment: ELISA, antigen coated, anti-human IgG Fc HRP.
Turning to B1, the binding result is reported as “binds”.

Regarding B2, the binding result is given as “binds”.

Regarding B3, the binding result is listed as “binds”.

With B4, the binding result was “binds”.
